Test results published in patent US12517112B2, “Immune cell organoid co-cultures” (Koninklijke Nederlandse Akademie van Wetenschappen, priority 2017, dated 2026).

What was measured:
HLA-A2 = HLA-A2 expression on CRC organoid lines with and without IFN-γ stimulation (flow cytometry); assay type: cell-based; conditions: HLA-A2 negative CRC organoids, 20 ng/ml recombinant human IFN-γ
Procedure: FIG. 10. HLA-A2 expression on clonally expanded HLA-A2^+ and HLA-A2^− CRC organoid lines. […] Flow cytometry analysis of HLA-A2 expression on normal (left panel), HLA-A2^+ CRC (middle panel) and HLA-A2^− CRC (right panel) lines with and without stimulation with 20 ng/ml recombinant human IFN-γ.
(§1) Cells were sorted as single cells into 96-well plates using a BD FACS Aria (BD Biosciences) cytometer. For flow cytometry, the following antibodies were used (all anti-human): CD8-PE (clone RPA-T8), CD45-PerCP-Cy5.5 (2D1), CD274 (PD-L1)-APC (MIH1) (all BD Biosciences), CD279 (PD-1)-PE (EH12.2H7, Biolegend), HLA-A2^− PE (BB7.2, Santa Cruz).

CD274 (PD-L1) = test: PD-L1 expression in colon organoid lines upon IFN-γ stimulation (qPCR and flow cytometry); assay type: cell-based; conditions: organoids treated with 20 ng/mL recombinant human IFN-γ
From the text: as §1

B1: IFN-γ: recombinant human interferon gamma used to stimulate organoids (20 ng/mL) (protein, UniProt P01579 24-161, looked up)
Interferon gamma: QDPYVKEAENLKKYFNAGHSDVADNGTLFLGILKNWKEESDRKIMQSQIVSFYFKLFKNFKDDQSIQKSVETIKEDMNVKFFNSNKKKRDDFEKLTNYSVTDLNVQRKAIHELIQVMAELSPAAKTGKRKRSQMLFRG
HLA-A2 re-expression (HLA-A2): did not trigger HLA-A2 re-expression | PD-L1 expression on transcript and protein level (CD274 (PD-L1)): dramatically upregulated
